How the values were obtained:
[1] = target: WIV1 spike protein (bat SARS-like coronavirus WIV1); experiment: cell-based or functional assay
[2] = target: SARS-CoV-1 spike protein (SARS-CoV-1) (UniProt P59594); experiment: cell-based or functional assay
[3] = target: HIV-1 Env peptide, biotinylated (negative control) (HIV-1); experiment: DELFIA on captured biotin-peptide; design: unit not given beside the values

Bebtelovimab (antibody)
pseudovirus neutralization Emax (% neutralization) [1]: 6.99 | pseudovirus neutralization Emax (% neutralization) [2]: 8

isotype control (palivizumab variable regions expressed as human IgG1 with LS mutation in the Fc region) (antibody)
AUC [3]: 41500

Source: US20240360203A1
